# Data as given in paper PMC8482478, “N-acetylmannosamine-6-phosphate 2-epimerase uses a novel substrate-assisted mechanism to catalyze amino sugar epimerization” (The Journal of Biological Chemistry, 2021).
# Target: the molecule itself
# Test: AUC; sedimentation velocity, 0.5 mg/ml SaNanE in 20 mM Tris pH 8.0, 150 mM NaCl, 50,000 rpm, 20 °C; c(s) and c(M) models in SEDFIT
protein,measurement,value
"N-acetylmannosamine-6-phosphate 2-epimerase (NanE) from Staphylococcus aureus, wildtype (enzyme, S. aureus USA300, N-acetylmannosamine-6-phosphate 2-epimerase (NanE) of S. aureus USA300; also called SaNanE; wildtype SaNanE) MLPHGLIVSCQALPDEPLHSSFIMSKMALAAYEGGAVGIRANTKEDILAIKETVDLPVIGIVKRDYDHSDVFITATSKEVDELIESQCEVIALDATLQQRPKETLDELVSYIRTHAPNVEIMADIATVEEAKNAARLGFDYIGTTLHGYTSYTQGQLLYQNDFQFLKDVLQSVDAKVIAEGNVITPDMYKRVMDLGVHCSVVGGAITRPKEITKRFVQIMED",stoichiometry N,2
